This note sets out measurements from article PMC11326238 (bioRxiv, 2024).

Data set [1] has as its target recombinant AMY3 (α-amylase3) lacking the chloroplast transit peptide, purified (Arabidopsis) (UniProt Q94A41). Nature of the data set: SEC-MALS + other: SAXS. In general terms: In gel filtration, larger molecules generally elute earlier.
Data set [2] deals with the molecule itself. Briefly: cross-linking.

Take “recombinant BAM9 (β-amylase9), purified (from UniProt Q8VYW2 1-536) (natural protein)”: the stoichiometry N (BAM9 per AMY3 (heterodimer)) in data set [1] turned out to be 1.

B1: recombinant AMY3 (α-amylase3) lacking the chloroplast transit peptide, purified (enzyme, Arabidopsis, UniProt Q94A41 56-887, looked up)
chain: SMNKSPVAIRATSSDTAVVETAQSDDVIFKEIFPVQRIEKAEGKIYVRLKEVKEKNWELSVGCSIPGKWILHWGVSYVGDTGSEWDQPPEDMRPPGSIAIKDYAIETPLKKLSEGDSFFEVAINLNLESSVAALNFVLKDEETGAWYQHKGRDFKVPLVDDVPDNGNLIGAKKGFGALGQLSNIPLKQDKSSAETDSIEERKGLQEFYEEMPISKRVADDNSVSVTARKCPETSKNIVSIETDLPGDVTVHWGVCKNGTKKWEIPSEPYPEETSLFKNKALRTRLQRKDDGNGSFGLFSLDGKLEGLCFVLKLNENTWLNYRGEDFYVPFLTSSSSPVETEAAQVSKPKRKTDKEVSASGFTKEIITEIRNLAIDISSHKNQKTNVKEVQENILQEIEKLAAEAYSIFRSTTPAFSEEGVLEAEADKPDIKISSGTGSGFEILCQGFNWESNKSGRWYLELQEKADELASLGFTVLWLPPPTESVSPEGYMPKDLYNLNSRYGTIDELKDTVKKFHKVGIKVLGDAVLNHRCAHFKNQNGVWNLFGGRLNWDDRAVVADDPHFQGRGNKSSGDNFHAAPNIDHSQDFVRKDIKEWLCWMMEEVGYDGWRLDFVRGFWGGYVKDYMDASKPYFAVGEYWDSLSYTYGEMDYNQDAHRQRIVDWINATSGAAGAFDVTTKGILHTALQKCEYWRLSDPKGKPPGVVGWWPSRAVTFIENHDTGSTQGHWRFPEGKEMQGYAYILTHPGTPAVFFDHIFSDYHSEIAALLSLRNRQKLHCRSEVNIDKSERDVYAAIIDEKVAMKIGPGHYEPPNGSQNWSVAVEGRDYKVWETS
As a reminder, the stoichiometry N is the number of molecules, sites or subunits per partner or assembly. On to B1, for which, in data set [2], the “stoichiometry N” value came out at 2.
